{"source": "patent US20110091993A1", "about": "(SEKISUI MEDICAL, published 2011)", "molecules": {"B1": {"name": "RAP/GST fusion protein (other, human, UniProt P30533 35-357, looked up)", "chain": "YSREKNQPKPSPKRESGEEFRMEKLNQLWEKAQRLHLPPVRLAELHADLKIQERDELAWKKLKLDGLDEDGEKEARLIRNLNVILAKYGLDGKKDARQVTSNSLSGTQEDGLDDPRLEKLWHKAKTSGKFSGEELDKLWREFLHHKEKVHEYNVLLETLSRTEEIHENVISPSDLSDIKGSVLHSRHTELKEKLRSINQGLDRLRRVSHQGYSTEAEFEEPRVIDLWDLAQSANLTDKELEAFREELKHFEAKIEKHNHYQKQLEIAHEKLRHAESVGDGERVSRSREKHALLEGRTKELGYTVKKHLQDLSGRISRARHNEL", "notes": "Expressed in E. coli DH5alpha and adsorbed on Glutathione Sepharose 4 FF; also called RAP-Sepharose resin; RAP (receptor associated protein); not shown: GST encoded by vector pGEX2T (GE Healthcare Bio Science)"}}, "key": {"[1]": {"biological_target": "T1, purified rabbit soluble LR11 (rabbit, UniProt Q95209 82-2136, limits assumed)", "T1 construct": "also called purified rabbit LR11; soluble LR11 in rabbit serum", "T1 sequence (Q95209 82-2136 limits assumed)": "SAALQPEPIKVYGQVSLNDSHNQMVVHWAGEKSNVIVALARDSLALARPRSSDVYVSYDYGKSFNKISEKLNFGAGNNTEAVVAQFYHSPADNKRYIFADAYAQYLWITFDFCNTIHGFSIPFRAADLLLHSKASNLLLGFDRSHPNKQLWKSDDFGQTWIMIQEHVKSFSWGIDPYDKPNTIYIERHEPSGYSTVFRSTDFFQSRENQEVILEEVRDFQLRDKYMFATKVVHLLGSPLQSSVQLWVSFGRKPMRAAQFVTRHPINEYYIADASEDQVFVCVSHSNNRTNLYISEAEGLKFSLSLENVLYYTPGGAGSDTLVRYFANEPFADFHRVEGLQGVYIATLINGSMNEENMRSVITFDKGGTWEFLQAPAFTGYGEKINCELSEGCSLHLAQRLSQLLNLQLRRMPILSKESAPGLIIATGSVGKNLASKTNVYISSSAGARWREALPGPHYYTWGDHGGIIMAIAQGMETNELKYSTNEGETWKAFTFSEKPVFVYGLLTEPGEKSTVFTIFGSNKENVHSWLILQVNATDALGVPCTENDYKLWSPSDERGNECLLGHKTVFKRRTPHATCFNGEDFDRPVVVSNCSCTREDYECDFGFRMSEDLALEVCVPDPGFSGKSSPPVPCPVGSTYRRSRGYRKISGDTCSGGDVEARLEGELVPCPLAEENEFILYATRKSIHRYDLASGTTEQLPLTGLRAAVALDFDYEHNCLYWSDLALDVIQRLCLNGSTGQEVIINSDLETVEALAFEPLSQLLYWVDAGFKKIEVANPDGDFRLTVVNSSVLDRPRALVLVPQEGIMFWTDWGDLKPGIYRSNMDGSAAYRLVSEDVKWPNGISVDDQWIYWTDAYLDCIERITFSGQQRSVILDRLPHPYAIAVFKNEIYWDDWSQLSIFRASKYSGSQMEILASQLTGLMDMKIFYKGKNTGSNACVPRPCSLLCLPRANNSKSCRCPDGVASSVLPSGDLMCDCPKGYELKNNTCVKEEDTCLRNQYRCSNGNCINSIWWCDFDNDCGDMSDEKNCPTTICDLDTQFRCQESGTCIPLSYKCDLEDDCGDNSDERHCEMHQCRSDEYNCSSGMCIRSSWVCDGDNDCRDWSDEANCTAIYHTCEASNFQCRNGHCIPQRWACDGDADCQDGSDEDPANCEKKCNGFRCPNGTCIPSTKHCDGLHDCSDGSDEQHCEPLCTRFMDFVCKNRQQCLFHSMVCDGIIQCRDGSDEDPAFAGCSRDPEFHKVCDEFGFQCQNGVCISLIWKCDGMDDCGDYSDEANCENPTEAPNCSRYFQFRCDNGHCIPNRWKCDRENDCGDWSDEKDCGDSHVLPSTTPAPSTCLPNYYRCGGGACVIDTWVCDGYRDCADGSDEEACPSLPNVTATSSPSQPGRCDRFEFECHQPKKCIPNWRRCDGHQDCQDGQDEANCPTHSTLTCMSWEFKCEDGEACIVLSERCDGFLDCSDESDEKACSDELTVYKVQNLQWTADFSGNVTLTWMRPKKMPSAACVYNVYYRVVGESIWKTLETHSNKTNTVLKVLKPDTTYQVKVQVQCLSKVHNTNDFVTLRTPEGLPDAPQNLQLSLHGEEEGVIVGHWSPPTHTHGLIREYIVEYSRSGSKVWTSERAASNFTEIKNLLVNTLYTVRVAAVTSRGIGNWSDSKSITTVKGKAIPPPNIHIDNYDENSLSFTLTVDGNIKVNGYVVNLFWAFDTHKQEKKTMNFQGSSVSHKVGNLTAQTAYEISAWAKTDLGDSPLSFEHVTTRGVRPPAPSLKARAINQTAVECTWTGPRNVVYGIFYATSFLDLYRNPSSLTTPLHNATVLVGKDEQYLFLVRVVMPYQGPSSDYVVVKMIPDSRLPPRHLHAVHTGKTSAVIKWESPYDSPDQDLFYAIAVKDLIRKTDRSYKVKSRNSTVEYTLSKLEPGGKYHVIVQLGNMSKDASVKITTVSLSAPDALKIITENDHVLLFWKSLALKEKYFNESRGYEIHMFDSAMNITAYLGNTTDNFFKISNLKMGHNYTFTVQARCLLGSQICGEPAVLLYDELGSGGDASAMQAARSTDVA", "assay": "sandwich ELISA, immobilized mouse IgG, liquid-phase biotinylated M5"}, "[2]": {"biological_target": "T2, purified human soluble LR11 (human, UniProt Q92673 82-2137, limits assumed)", "T2 construct": "Natural shed soluble form from serum (Lot. 061208); Also used for native soluble LR11 measured directly in human serum and cerebrospinal fluid; also called purified human LR11; soluble LR11 in human serum", "T2 sequence (Q92673 82-2137 limits assumed)": "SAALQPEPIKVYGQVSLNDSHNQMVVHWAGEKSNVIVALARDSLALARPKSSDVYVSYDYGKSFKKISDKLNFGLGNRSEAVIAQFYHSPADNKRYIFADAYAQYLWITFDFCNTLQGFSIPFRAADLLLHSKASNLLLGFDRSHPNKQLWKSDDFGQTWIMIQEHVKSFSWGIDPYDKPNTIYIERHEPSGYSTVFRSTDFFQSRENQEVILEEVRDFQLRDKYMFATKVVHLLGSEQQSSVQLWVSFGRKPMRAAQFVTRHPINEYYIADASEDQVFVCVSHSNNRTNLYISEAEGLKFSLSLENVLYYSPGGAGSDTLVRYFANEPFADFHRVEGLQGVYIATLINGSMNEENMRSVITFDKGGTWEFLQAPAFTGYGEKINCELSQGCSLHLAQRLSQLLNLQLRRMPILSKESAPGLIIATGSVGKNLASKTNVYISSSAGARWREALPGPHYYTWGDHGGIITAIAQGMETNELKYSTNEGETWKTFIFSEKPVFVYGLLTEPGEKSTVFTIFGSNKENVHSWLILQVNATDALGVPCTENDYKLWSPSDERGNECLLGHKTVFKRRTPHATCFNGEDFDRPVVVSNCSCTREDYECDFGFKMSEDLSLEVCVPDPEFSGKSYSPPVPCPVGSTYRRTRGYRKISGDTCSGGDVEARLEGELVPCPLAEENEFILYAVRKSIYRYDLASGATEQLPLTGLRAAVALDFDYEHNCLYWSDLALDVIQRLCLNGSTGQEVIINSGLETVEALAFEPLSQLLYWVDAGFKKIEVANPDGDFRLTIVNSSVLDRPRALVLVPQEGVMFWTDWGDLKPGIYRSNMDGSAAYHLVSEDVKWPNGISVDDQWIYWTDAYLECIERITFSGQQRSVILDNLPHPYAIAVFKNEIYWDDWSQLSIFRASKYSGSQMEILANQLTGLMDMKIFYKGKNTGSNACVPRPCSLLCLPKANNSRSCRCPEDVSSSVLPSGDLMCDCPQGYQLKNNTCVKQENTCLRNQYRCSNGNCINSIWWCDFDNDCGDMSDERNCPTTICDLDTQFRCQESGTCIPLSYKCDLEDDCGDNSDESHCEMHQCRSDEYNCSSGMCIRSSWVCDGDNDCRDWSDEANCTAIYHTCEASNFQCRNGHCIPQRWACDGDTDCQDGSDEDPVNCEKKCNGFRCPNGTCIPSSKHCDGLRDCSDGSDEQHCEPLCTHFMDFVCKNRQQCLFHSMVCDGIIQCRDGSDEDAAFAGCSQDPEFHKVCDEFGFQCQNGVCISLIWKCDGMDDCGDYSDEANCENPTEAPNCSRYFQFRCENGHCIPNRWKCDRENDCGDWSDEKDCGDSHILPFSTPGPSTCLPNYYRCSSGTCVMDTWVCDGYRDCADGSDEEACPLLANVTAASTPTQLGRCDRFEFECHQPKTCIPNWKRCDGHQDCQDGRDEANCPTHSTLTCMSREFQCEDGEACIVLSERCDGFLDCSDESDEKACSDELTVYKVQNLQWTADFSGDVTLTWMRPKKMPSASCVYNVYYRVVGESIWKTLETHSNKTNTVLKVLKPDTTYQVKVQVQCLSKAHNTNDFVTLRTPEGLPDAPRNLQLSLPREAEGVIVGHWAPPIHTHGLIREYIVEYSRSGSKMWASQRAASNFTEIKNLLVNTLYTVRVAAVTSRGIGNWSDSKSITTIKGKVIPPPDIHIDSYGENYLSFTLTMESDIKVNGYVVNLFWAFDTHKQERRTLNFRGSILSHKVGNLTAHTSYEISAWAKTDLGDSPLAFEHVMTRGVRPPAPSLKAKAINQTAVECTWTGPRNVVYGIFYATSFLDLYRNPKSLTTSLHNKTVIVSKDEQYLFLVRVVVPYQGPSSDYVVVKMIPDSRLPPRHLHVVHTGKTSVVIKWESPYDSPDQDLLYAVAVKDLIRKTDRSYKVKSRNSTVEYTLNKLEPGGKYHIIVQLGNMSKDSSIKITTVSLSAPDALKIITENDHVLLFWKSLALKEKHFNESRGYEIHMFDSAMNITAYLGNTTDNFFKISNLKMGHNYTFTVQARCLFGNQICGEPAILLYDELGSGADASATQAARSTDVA", "assay": "sandwich ELISA, immobilized mouse IgG, liquid-phase biotinylated M5"}, "[3]": {"biological_target": "T1, purified rabbit soluble LR11", "assay": "sandwich ELISA, immobilized mouse IgG, liquid-phase biotinylated M3"}, "[4]": {"biological_target": "T2, purified human soluble LR11", "assay": "sandwich ELISA, immobilized mouse IgG, liquid-phase biotinylated M3"}, "[5]": {"biological_target": "T1, purified rabbit soluble LR11", "assay": "sandwich ELISA, immobilized mouse IgG, liquid-phase biotinylated A2-2-3"}, "[6]": {"biological_target": "T2, purified human soluble LR11", "assay": "sandwich ELISA, immobilized mouse IgG, liquid-phase biotinylated A2-2-3"}, "[7]": {"biological_target": "T1, purified rabbit soluble LR11", "assay": "sandwich ELISA, immobilized mouse IgG, liquid-phase biotinylated mouse IgG"}, "[8]": {"biological_target": "T2, purified human soluble LR11", "assay": "sandwich ELISA, immobilized mouse IgG, liquid-phase biotinylated mouse IgG"}, "[9]": {"biological_target": "T1, purified rabbit soluble LR11", "assay": "sandwich ELISA, immobilized mouse IgG, liquid-phase biotinylated R14"}, "[10]": {"biological_target": "T2, purified human soluble LR11", "assay": "sandwich ELISA, immobilized mouse IgG, liquid-phase biotinylated R14"}, "[11]": {"biological_target": "T1, purified rabbit soluble LR11", "assay": "sandwich ELISA, immobilized mouse IgG, liquid-phase biotinylated R23"}, "[12]": {"biological_target": "T2, purified human soluble LR11", "assay": "sandwich ELISA, immobilized mouse IgG, liquid-phase biotinylated R23"}, "[13]": {"biological_target": "T1, purified rabbit soluble LR11", "assay": "affinity capture from serum on RAP/GST bound to Glutathione Sepharose"}, "[14]": {"biological_target": "T2, purified human soluble LR11", "assay": "affinity capture from serum on RAP/GST bound to Glutathione Sepharose"}}, "data": [{"molecule": "mouse IgG (negative control) (antibody)", "values": [{"measurement": "Absorbance (492 nm) (Absorbance (492 nm))", "setting": "[1]", "result": -0.017}, {"measurement": "Absorbance (492 nm) (Absorbance (492 nm))", "setting": "[2]", "result": 0.007}, {"measurement": "Absorbance (492 nm) (Absorbance (492 nm))", "setting": "[3]", "result": -0.017}, {"measurement": "Absorbance (492 nm) (Absorbance (492 nm))", "setting": "[4]", "result": 0.024}, {"measurement": "Absorbance (492 nm) (Absorbance (492 nm))", "setting": "[5]", "result": -0.017}, {"measurement": "Absorbance (492 nm) (Absorbance (492 nm))", "setting": "[6]", "result": 0.015}, {"measurement": "Absorbance (492 nm) (Absorbance (492 nm))", "setting": "[7]", "result": 0.043}, {"measurement": "Absorbance (492 nm) (Absorbance (492 nm))", "setting": "[8]", "result": -0.003}, {"measurement": "Absorbance (492 nm) (Absorbance (492 nm))", "setting": "[9]", "result": -0.019}, {"measurement": "Absorbance (492 nm) (Absorbance (492 nm))", "setting": "[10]", "result": -0.017}, {"measurement": "Absorbance (492 nm) (Absorbance (492 nm))", "setting": "[11]", "result": -0.026}, {"measurement": "Absorbance (492 nm) (Absorbance (492 nm))", "setting": "[12]", "result": -0.02}]}, {"molecule": "B1", "values": [{"measurement": "binding result", "setting": "[13]", "result": "binds"}, {"measurement": "binding result", "setting": "[14]", "result": "binds"}]}]}
